# Experimental data as given in US20120039878A1.
# Target: murine monoclonal antibody 2A4 (ATCC Accession Number PTA-9662)
# Experiment: Competition ELISA; mouse AA (AEF) in solution competing with adsorbed human AA amyloid extract for mAb 2A4
# Sequence of murine monoclonal antibody 2A4 (ATCC Accession Number PTA-9662) (VL, as listed by the source, chain 1 of 2): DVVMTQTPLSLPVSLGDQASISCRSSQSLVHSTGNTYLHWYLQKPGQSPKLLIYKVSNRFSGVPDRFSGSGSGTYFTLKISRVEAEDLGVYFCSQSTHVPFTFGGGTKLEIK
# Sequence of murine monoclonal antibody 2A4 (ATCC Accession Number PTA-9662) (VH, as listed by the source, chain 2 of 2): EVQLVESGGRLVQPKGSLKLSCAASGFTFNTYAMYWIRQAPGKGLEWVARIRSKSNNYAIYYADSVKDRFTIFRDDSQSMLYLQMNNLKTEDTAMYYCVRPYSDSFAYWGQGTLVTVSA
# Sequence of murine AA amyloid (AA fibrils; amyloid enhancing factor extract, AEF) (P05367 20-94): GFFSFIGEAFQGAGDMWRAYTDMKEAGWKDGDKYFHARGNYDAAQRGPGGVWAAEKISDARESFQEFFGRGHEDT
substance,measurement,value
"murine AA amyloid (AA fibrils; amyloid enhancing factor extract, AEF)",IC50,14.7 µg/mL
